From the DeepSol protein solubility set

Test: soluble on expression in E. coli; label from the status in PepcDB or PDB records

Sequence | soluble on expression in E. coli
MSNQEPYRIPKRTASDPNQSGSQGSCVRPNQEGNVKKEESVNSAPRRMFTLPSSSSTSGAQVFNPIGKCQVQTNSFKIDITKMPKRLLRLSMETRLCGGKTELNLNDGVQAVAGNLNSQEDFTTQEWSQISNYLRKKNAEFKVKISPNGFVYTNGPNSLSDANRQELPRLVEIATSEVLNTPEYLQFGNQTYAVNEPAVSSPDALSEIRSGFDKSVRLVDGENGSTEIIMTIDNKLAPFHKSTSVLKMICDKFEEIVNPARQHRGSQDRRGDRDRGYRGGRSYGHDNRRRSRSRSPQDRGDRGDRGNHHRDHNEDWDERKVKEVERRLLEEPRALGSIADALKGLIVESVHLSKDVNRNSRIKLNEGKNDEQEISVADYYLKQYNYKLKFPYLPMIVSKRFRSETMFPVELLKIVPGQKISIQKINPNVQSAMTGPNSILPSKHVRIVARILESSLKIASNPYLKTFGIRISKDPIKLEAKILSPAQLSFNKYSIMPKPGSVQFEPSREDKFFKPAKIYEVAVIAFRVVSINLSDFCMKLCDLCRRSGLEIRRETRDWIKIENFNPTSTIELKEQMKRLQQSNCSIIIGITEEKKPEVHDVLKYFEAAVGLQTMQIHSKTAGFIISGNGQTAGNVIKKLNLKCGGINYIVEVPQSFNRTVVCSNNSFVQKKLFDGTQFIGFEMTHGAARTLFDKSNGTFDGEPTIVGCAYSLQKATDLGGFNWFQEQNEYRLKNLGTHIPKCLQYYKESSGSLPEKIVIYRTGAGEGDFDRVQQEITEIRSSFAEVQEGYKPSLVVIVANKTSHLRVFPVEIREGDTAMKQNVRSGTCLDGKITSAGREEFVLISQTALISTAKPTKYTIAANDPKWSKNEVMNLTYILSFAHQVCYQPPAVPHILYAADNLAKRGRNNFIQHKKLGELSKTIQATLTKYSDLNIEMDSKELSGELVEDITKSMNVMAIKARNFWA | not soluble
MSNQLSPKPPVNPIVMGKIGSAYGIRGWLRVFSSTEDADSIFDYQPWFIQSKSGWQLVEIEGWKYHNQDLIIKVKGADDRDAANLLTNCEIVVDSSQLPDLGVGDYYWKDLIGCQVVTVTGYELGKIIDMMETGSNDVMVIKANLKDAFGVKERLVPFLTEQVVKRVDLSAQTIEVDWDPGFLEHHHHHH | soluble
MSNRNGGGGGGDYQDVIESLRRTQLIFEEDDNNSSDSAPQANHLSRHQTSNSLVEDMVNHSNGNPPPVPPGITQQQCQIGLTPRMSASPPSAVSTISGTAVLGKTMARVQSNPPGSIPHNTTTTAQGIQSVAPHIPIGGGGATDDSSAEILSVFECPVCLEYMLPPYMQCSSGHLVCSNCRPKLQCCPTCRGPTPSVRNLGLEKIANTVRFPCKFSTSGCPLNFHHADKTEHEELCEFRPYCCPCPGASCKWQGGLSDVMEHLKKIHKSITTLQGEDIVFLATDINLPGAVDWVMMQSCFDYNFMLVLEKQEKYDPAQPTQMFYAVVQLIGSKKEADNFVYRLELSASRRRMSWEATPRSIHEGVVVAIQQSDCLAFDSNAAQLFAENGNLGINVTISRIDTPQRRHPNELENSDLEYD | not soluble
MSNSEPSTSTPSGKTKKRGKKCETSMGKSKKSKNLPRFVKIQPIFSSEKIKETVCEQGIEECKRMLKGHFNAIKDDYDIRVKDELDTDIKDWLKDASSSVNEYRRRLQENLGEGRTIAKFSFKNCEKYEENDYKVSDSTVTWIKPDRTEEGDLMKKFRAPCSRIEVGDISPPMIYWVPIEQSVATPDQLRLTHMPYFGDGIDDGNIYEHLIDMFPDGIHGFSDNWSYVNDWILYKLCRAALKDYQGSPDVFYYTLYRLWPNKSSQREFSSAFPVLCENFAEKGFDPSSLEPWKKTKIAEGAQNLRNPTCYACLAYTCAIHGFKAEIPIEFPNGEFYNAMLPLPNNPENDGKMCSGNCWKSVTMKEVSEVLVPDSEEILQKEVKIYFMKSRIAKMPIEDGALIVNIYVFNTYIPFCEFVKKYVDEDDEESKIRSCRDAYHLMMSMAENVSARRLKMGQPSNRLSIKDRVNNFRRNQLSQEKAKRKLRHDSLRIQALRDGLDAEKLIREDDMRDSQRNSEKVRMTAVTPITACRHAGPCNATAENCACRENGVCSYMCKCDINCSQRFPGCNCAAGQCYTKACQCYRANWECNPMTCNMCKCDAIDSNIIKCRNFGMTRMIQKRTYCGPSKIAGNGLFLLEPAEKDEFITEYTGERISDDEAERRGAIYDRYQCSYIFNIETGGAIDSYKIGNLARFANHDSKNPTCYARTMVVAGEHRIGFYAKRRLEISEELTFDYSYSGEHQIAFRMVQTKERSEKPSRPKSQKLSKPMTSE | not soluble
MSNSFEILMNQLGMPAEMRQAPALAQANIERVVVHKISKVWEFHFVFSNILPIEIFLELKKGLSEEFSKTGNKAVFEIKARSQEFSNQLLQSYYREAFSEGPCASQGFKSLYQNLQVRAEGNQLFIEGSEAIDKEHFKKNHLPNLAKQLEKFGFP | not soluble
MSNTMQGAHYPQMAFDPTWQMHPAYATATAFNPYNVSFDFTRSPNTSGGSDESMSDGSKIDPKRSPKYLEKRMKNNEAAKKSRASRKHREQKNQTENELLKRKNAALEEELKQAKCELAQMQITIRDMSIEREAYRRENEMLKMVNNKFADSKFEPPQPLRDMTNCNLPYKYELLS | not soluble
MSNTQAERSIIGMIDMFHKYTRRDDKIDKPSLLTMMKENFPNFLSACDKKGTNYLADVFEKKDKNEDKKIDFSEFLSLLGDIATDYHKQSHGAAPCSGGSQ | not soluble
MSNVQNASRSSAFAAVEGDHWVESLDDGRHVLIRPLREEDRERERQFINRLSPATRHFRFLGEIKEASPALLDQLMDIDYQQSMAFVALVHEDGELREVGISRYAACCEEGQCECAVTIADDYQGLGLDAVLMRHLIDVARRNGFRQMYSVDSAANRAMRDLCCALGFVGQRDPDDSTQVIHRLAL | not soluble
MSNYTWKQADIQTLISFYETLGEEINPKVQKVQQNSEANSFSEKAKKFGLLDLPIYSKCVDSSQLIAESASRVYHDAKEYMNNGSATEAELYRFVSSILKEVLEPIFNPKEIRNVLKGLITSLVDSRSRDEEIGSDIEKNVKYEVVRFLPESPPNFPGFNDNVSRSITNFIGYFALHTIRHHCYVNFGVDGELKFYQRNMYKKAFDDLRVNKAKPTVSVKPEASLKREPKAETPTLTRVKPEIRNDSDEDFCEIIEPAVKKSKTRQTSESNAKGGKELKDFPEKYMLEDLDKDDLPMNFKTKFRKLVEQNQMLRDEINDYKELIQLKIAEKKQRMG | not soluble
MSPHPPQPHPPMPPMPPVTAPPGAMTPMPPVPADAQKLHQSTGNDACIKRLQQLNVEDGAKMYMKPTEPGKMGRPVDIQTNVFGIEVTKETTVHRFMVHAKADLTSTKEVTFTKKGKEDFVVQDRRDKCCNIFFLAVEKNPEFFKMKDGNQIVYDGQSTLYTTVNLFSELDANGTKSKVFQINGADTGNDDLKTLPCISLEIYAPRDNSITLSSENLGKRTADQNIEVNNREYTQFLELALNQHCVRETNRFGCFEHGKVYFLNATEEGFDQRDCVDVGDGKQLYPGLKKTIQFIEGPYGRGQNNPSLVIDGMKAAFHKEQTVIQKLFDITGQDPSNGLNNMTREKAAAVIKGLDCYSTYTNRKRHLRIEGIFHESATKTRFELPDGKTCSIAEYYADKYKISLQYPNANLVVCKDRGNNNYFPAELMTVSRNQRVTIPQQTGNQSQKTTKECAVLPDVRQRMIITGKNAVNITLENELLVALGIKVYSEPLMVQARELDGKELVYQRSVMSDMGKWRAPPGWFVKPATVPDLWAAYAVGNPGCRFSIGDVNQLVGMFIDSCKKKGMVIKPPCETGLYSTEKIMTQLEKVAASKCKYVLMITDDAIVHLHKQYKALEQRTMMIVQDMKISKANAVVKDGKRLTLENIINKTNVKLGGLNYTVSDAKKSMTDEQLIIGVGVSAPPAGTKYMMDNKGHLNPQIIGFASNAVANHEFVGDFVLAPSGQDTMASIEDVLQNSIDLFEKNRKALPKRIIIYRSGASEGSHASILAYEIPLARAIIHGYSKEIKLIFIVVTKEHSYRFFRDQLRSGGKATEMNIPPGIVLDNAVTNPACKQFFLNGHTTLQGTAKTPLYTVLADDCKAPMDRLEELTFTLCHHHQIVSLSTSIPTPLYVANEYAKRGRDLWGELTTKGPIEAKESQGERLKELTKEIGYKQTDLNQKRVNA | not soluble
MSPKSKSTNKTYTIVIKLGTSSICDEKTHEPLISNLSLIVETVVKLRKLGHNVVLVSSGGIAMGLRRLDLPKRPSKLSAVQAIAAVGQGRLISLWDTLFTQLRQPIAQVLITRNDIAERSQYVNAANTISELLHFGVVPIVNENDTLSVQEIRFGDNDTLSAITAGMINADYLFLLTDVDCLYTDNPRTNPDAKPILKIHDTSMVNANVSTPGSGVGTGGMKTKLIAADLGTSSGVNVIICRGSKPSSIFDIIRQESSDNKNESVELPLHTHFVAKKQGRIRDRHFWLLHGLKSHGSLEIDRGAFEAITRTNRAGLLPVGVTKVHGHFSAHQAVTVIYNGEEIGRALVNYSSTEIDLIKGKRSKEIASILGYNETEYVAYRDYLVVHGLNSHHDSQVSSDEH | soluble
MSPSLLGSSFLRSASGNFTKFASIRNAHFLSSVPMKKRGVDGNLPKDYFENKTVVVYFSAGWCGSCKFLTPKIKKFYNAVKESDAGKNLEIVWVSKDKEAAHQEEYYEKNLPDWPYIPFGDENIQKLSEKYKAVVIPVLKLVNSNGDVVHDRVRADVEAGIKADPVKTMEEWKKLLNQ | not soluble
MSQAELFTISDLAREFDVTLRTIRFYEEQGLIEPQRDGRQRLFTRRDRGRLKLILRGKRIGLSLAEIREIIDMYQLARDEASQSQKLLDLLLARRRQLEAQRRDIDAVLDEIATLENHCRDVIDSQSSVA | not soluble
MSQAHTPSAPLAEVYDVAVVGGGINGVGIAADAAGRGLSVFLCEQHDLAQHTSSASSKLIHGGLRYLEHYEFRLVREALAEREVLLAKAPHIVKPLRFVLPHRPHLRPAWMIRAGLFLYDHLGKREKLPASRGLRFTGSSPLKAEIRRGFEYSDCAVDDARLVVLNAISAREHGAHVHTRTRCVSARRSKGLWHLHLERSDGSLYSIRARALVNAAGPWVARFIQDDLKQKSPYGIRLIQGSHIIVPKLYEGEHAYILQNEDRRIVFAIPYLDRFTMIGTTDREYQGDPAKVAISEEETAYLLQVVNAHFKQQLAAADILHSFAGVRPLCDDESDEPSAITRDYTLSLSAGNGEPPLLSVFGGKLTTYRKLAESALTQLQPFFANLGPAWTAKAPLPGGEQMQSVEALTEQLANRYAWLDRELALRWARTYGTRVWRLLDGVNGEADLGEHLGGGLYAREVDYLCKHEWAQDAEDILWRRSKLGLFLSPSQQVRLGQYLQSEHPHRPRVHAALEHHHHHH | soluble
MSQFFYIHPDNPQQRLINQAVEIVRKGGVIVYPTDSGYALGCKIEDKNAMERICRIRQLPDGHNFTLMCRDLSELSTYSFVDNVAFRLMKNNTPGNYTFILKGTKEVPRRLLQEKRKTIGMRVPSNPIAQALLEALGEPMLSTSLMLPGSEFTESDPEEIKDRLEKQVDLIIHGGYLGQKPTTVIDLTDDTPVVVREGVGDVKPFL | soluble
MSQIEKKQLQLGYIPLLDCIALLWAKERGYFEEMGLDVTLVKEASWASLRDRLAFGILDAAHCLSAMLPAAAIGEDQIGIPLKTPLVLSKNRAYISLSQKLCYELSIQNADNAQENSAKLVKYLEQEQSIALAHVFHHSIHHYCLREWLALSHLDLAKAIQLKTLPPPYMLDALASASIDGFCVGEPWNTQGEIEGYSQIVASSRDIIPEVADKVLAVTEEWAAHHPNTVIALTAAILKAQQELETLSNLEPVWQILINFNIVRFQCSKSVHVKSYHALEQIIRHLVVGQAAPCSEDMLWLFGQMQKWHDLTIETTALNELSQRCIDQNSFEKAMQHVQSNTGLEHHHHHH | not soluble
